Experiment: label from the status in PepcDB records
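Note: failed if final PepcDB status was selected cloned or expressed and not failed if soluble or beyond.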

Sequence | protein production
MSTDFAAARLNMVESQIRTADVTDLPLQDALRVVARESVVPASKAYLAYADADIEYAPGRWLLRPREVGKLLQALKPREGETVLAIAAPYAAAVLEKMGLSVTRHDGEDLKTVPAGAYDVIVCEGAVAVAPKSWQDALAHGGRLGVVERTGPVGRAAIYLRAEDGVGRRAAFDASPPLLAGFEAETGFSF | failed
MLEIMLMVCIGALAAVMANLGIAVFNDGIRPIVPENLEGRMTRKELGVTAFAMSFGLVIGFGIPISIAGSIILIHSILLGSDIIGLALDRGKVKTTIAAIIGGLYGAGIYMGLQVVVDLFTMLPLNFVDAFNKVGDPVVVSFMVFPAIAIALQFGVKKGIIAFAIAAFARQLIVFTNGAELIKIGSTPVVLSPEGIALVVGMFLLIFFAMREKSEETNLSTLATLFTDRVARIKKHRWILMLSGGLVAAATNLLLIAGDPISLNLLAEGKMSEGGIAALAKAIGFVPLIASTAIATGVYGPIGFTFVFAAGIFAPNLGIALLIGALIIFLEIQLLTKLATFLDRYPGIRASGENIRTAMSRVLEVALLIGGANAADAIVPGFGFFAIAGFYLINEIAGRPIVRMAIGPVGAIIVGIVGNLLVLLGLYTP | failed
MLDKLTVWIENHLAGPMAKIANQRHLRAVRDGIIATLPLIIVGSFFLIIAFPPLPESWGITQFLTSNAATILLPYRMTMYIMALYATFGIGASLAKSYNLDQVSGGILATIAFLLTLVPVAIPEEASKAAGVSGFVLPMANLGGAGMFVGIVTSIIAVEIYRVTDKSKFKITMPDNVPPAVARSFESLTPTLIVMLLIGSITYYLGFDWHTFVGNLVGPLVQAADSLLSVLLLVFLTTFFWFFGIHGASIVGSLARPLWLQLLEENTTAKAAGEALPRIAAEPFYQWFIWIGGAGATIGLAILLAFRAKSEYGSKLGKAILAPSIFNINEPVIFGVPIVLNPILMIPFIFAPMVLATIAWFATKLGLVSEVVFTAPWTLPGPIGAFMATGGDWRAAVLNIVLILVAILIYYPFFVAYDKNELAKEQGKQIEE | failed
MVNRFVLEPKTVLEGEQEQKLKDSEAAVASLQTSKEYLEKQVAEVENNLRELLQQEPGIAQQIMSMSM | failed
MAAKKPLFEVIASKIKDSINRDEYKTGMLMPNETALQEIYSSSRTTIRRAVDLLVEEGLVVRKNGVGLYVQPKLTAQNILEMTGVMKNDTNENLKKDIKDFYIRKAGKFYAEIFGMKENELVYSIKFVQKSEHGATLDRLILPLGLYPDLQAKDFQIINIIELVNSGKYKLFELEQELQLILAGNEQIKNMHLNENDPVFKLSSVFYAENDMPIAIQYHYEDAESTKYVVDFN | not failed
GERRKDRPYVEEPRHVKVQKGSEPLGISIVSGEKGGIYVSKVTVGSIAHQAGLEYGDQLLEFNGINLRSATEQQARLIIGQQCDTITILAQYNPHVHQLSSHSR | not failed
MLIINGKIIPIAHTICAFSAFFAALVTGYSLHFHKIVTNAHYTYPDEWFPSVSATIGDRYPERSIFQILIALTAFPRFLLLLGHYYLNQSKVCFLVGVLRTVSCGGWVYITSTDDHDIHDIFMITYIVLTLPWDIMITRYSSPLTSKNKGLTATIFFGTLFPMIYWYIQHSVQQRAGAYSIYAYFEWSLILLDIAFDAFAYADFKKIDIVLAFNEKPGNTSFFQIRDSSPINYGEEKSSELQKSGEKKVEKEKPVARSATGSYFRFDSFFYLLTNIFNGFLFWSNVTSLLCSIWHFPLWYMGISGYEAAILGYLGPIFLYLPFVSEAFTQYGVLLGGIIAIGAYIVQMPELRLISVAVGTSITVATFVQNLRYITNAETSFSFALTWLLGLVASVILKMGFYTNNPTWVILDERNGGYNKTALVLTVLFGMLSPYVNSINFEGKRNAQAKSASLIGKLFLAVGFGSLLFGIHQLLTDSSTTIYWAWEGYNESHGPLPWPWGALTCTVMLFASLSSVKFMGKPLVPCLLLLISTAVLSARSITQWPKYIFGGLLYAIAMLWLVPSYFSALGQVQNIWVYVLSFSVYIIFVLAHVWVVAYAFVPMGWVLREKIETVLAFSSTFIIIGALTCKNLNIQLVTMGKKFFIYVFFFAVALLSLTARFVYDIRPTGIPQPYHPDSQLITAGIWTIHFGLDNDMWASEDRMINLIKDMELDVVGLLETDTQRITMGNRDLTSKLAHDLNMYADFGPGPNKHTWGCVLLSKFPIVNSTHHLLPSPVGELAPAIHATLQTYNDTLVDVFVFHSGQEEDEEDRRLQSNYMAKLMGNTTRPAILLSYLVVDPGEGNYNTYVSETSGMHDIDPSDDDRWCEYILYRGLRRTGYARVARGTITDTELQVGKFQVLSEQALVEHSDSMYEYGHMSEPEYEDMKFPDKFLGEGERGHFYHVFDEPRYYL | failed
MKVVGLDLGGTKIAAGVFDGKRLLSKVVVPTPKEGGERVAEALAEAAERAEREAGVRGEAIGLGTPGPLDFRRGVIRFAPNIPGVQDFPIRRILEEATGRPVFLENDANAAALAEHHLGAAQGEESSLYLTVSTGIGGGVVLGGRVLRGERGQGGELGHLTLLPGGPACGCGLEGCLEALAAGRALERDATYAFQRPVDTRELFRLFQAGDPKAERLVLQAARYVGIGLASLVKAFDPGVVVLGGGVALNAPEGYWEALLEAYRRYLQGWEAPPLRRARLGAEAGLLGAALTAYLEVKDGSG | not failed
MPKVLNVVFFFSPLIISAVITYFTWVKIETILIDFGLWLAMVTAFYIFLNFYLLLRRSKRYNIEVADEMTGFKIAAFVTSFNEDPEIVERTLLSVKDAVSNQGDVFLLDDSTDENISRRLREFCTRNDINYVHRKDRRGYKAGAINDALRRIQGYDLVAIFDADQRPVRDFFKQVLPYFKDPKIAFVQVPQNYSETFSGISTGAKYQQEPFLRIIMRGRSGRSAFSLGSGTVFRIQALREVGYLPENSITEDAAVSIKLHSKGYNSVYIDVPLIWYGEPPQDLNAYLIQQSRWALGYFQLTKDIIKADLSFLKYYDYFSGFLYWIKEGPLAIVEFISPIVFLLTEIPILRINPILYLLVYLPYLFISIGIFVAGIREETEYGLKGFFYHQCVEFLEFTAVTASFISWLLGRKRPFRVTPKGGGRLNLRILLPHIVILLLLIVSTVKGILWLISANSNFLLYYAIIVNVFWAIYHIPFFLGGILISARFKTRENLTKVVYY | failed
MLRFGFAAVLLVLAGCSAPMGPEALGPGSYQAAPDPGPFLTPADAQRAFPAVVARVEPVAEAICRERTRGVPCDFQIAVDARPGLDPNAFQTLDDYGRPVIGLTLSLISDARNVDELAFVVGHETAHHILGHIPRQRETALTGAVLAGVLAQMGGADAQTIRSVQEFGANVGARSYSKNFELEADGLGTEIAIRAGYDPVHGAQFFTRLPDPGDTFLGSHPPNAQRIAAVRRAAESIGYVSAWLEHHHHHH | failed
MDFNYTIKALRTKKKLDAKPMTHTDFCYTIKALRSTKKLDAKPKPHTDFGYTIKVLRSRKKLELEPQLDLKSLSSVDLLEDTNSKTHTDFSYTIKASRSKKKLDTKSKTRTVFDYTIKAFRSKKKLDRKPKTHTDFGYTFKAMRSKKKLC | failed
MTYKVLHVGAGGFGERWCDTFLPSNNSDGTIEVVGLVDIDARALEIGRKHLGLKAKQCFTSAAQAFKAVDADFCTIVIPPALHEGIVDLALERGMHILSEKPIAATMEASVRIADKVRVAGRKMAVTMSHRFDQDKSTLRALVSDEALGRVNTVSCRFAGDYRAYDSWGRFRHEMIHPMLIEGAVHHLDIMADLAGAPCTSIYARSWKPEWAEYKGETDVMVLMDFANGAHGVYEGSSAQATGLNDWTFEYVRVEAASGTAILDHREVEVFHRDPKRIYQKNRHGKGQQVSLLGGKKWKNSLLIEQFCHWLDGGPPMATNVEDNLQSVALIFSAIESARLGQPVKVQEFLQSFRKSASIETQ | failed
MRMKHLTVAALTLLLSVSCSQRQEDYPFRNPDLPIDERIDDLLKRLTAEEKIGQMMNTTPAIERLGIPEYDWWNEALHGVARAGKATVFPQAIAMAATFDDDALYETFTMVSDEARAKYHQYQKNKEYDRYKGLTFWTPNINIFRDPRWGRGMETYGEDPYLTERMGVAVVKGLQGDDPKYFKTHACAKHYAVHSGPEWNRHEFDVTVTPRDLWQTYLPAFEALVKKGNVQEVMCAYNRYQGKPCCSSDKLLIDILRNSWGYENIILSDCGAINDFWQRDERTPRHETHPDAESASADAVLNGTDLECGNSYKALIKALKEGKISENDLDVSLRRLLKGRFELGMFDPDERVPYAQIPYNVVESPEHVAQALEMAHKSMVLLKNKNNTLPLSKTIRKIAVVGPNAADSTMLWANYNGFPTHTVTILEGIRNKVPDTEVIYELGCNHAADFVIQDLGNHITSPAGQGFASEFYNNTEFKGEAVYKGLASQLHYTTGGNTQFAPNVNLTNFTARFTGEFEAPETEQVEIKLSGNDAFRLFIGDEKVAEVWENEYGAEKTYMLNAEKGKKYPVKIEYMQRTGSADLNFQIGTRRPVDYAATAAKVKDADVIVYVGGISPRLEGEEMPVNVEGFKKGDRTNIEIPKVQQEMVKALKATGKPVVYVLCTGSALALNWEDANIDAILNAWYGGQEAGTAVADILFGDYNPSGRLPVTFYKSIDQLPDFEDYSMKGRTYRYMTETPLYPFGYGLSYTNFAYRNAKLSSGKITKDQSVTLTFDIANTGKMDGDEVAQIYIKNPNDPEGPIKALKAFLRVHVKAGDSQEVNIELTPEAFHSFNDNTQTMEVRPGKYQILYGGSSDEKALERLELTIE | failed
MIVASRSPLPLAPPMLFPASDDDVPFDDAPRILLFTGKGGTGKTTCAAATAQHAARQGHKTLVLSSDPAHSLADALDQELGPEAREVRDRLFAQEVDLYYSMKKHWGHMRELMLTVFRWQGVDQIAAEELAALPGMNEGSVLLWLEEALREADYDLIVVDSAPTGETLTLLTLPQVTQWWLAKAFPFQKMAVKSLGFGVRKATGIPLDKGYEELEVIFEKLERVQQVLATPSTTSIRLVTNPEKMVIEEARRAFTYLQLYGYGVDSVVVNRVLPEEEVPADSFFEGYVESQREYLEEIEQSFRPLPILQVPHLGEEVFGAERLGRIGDAMYAERNPTDVFYDEPTFTVEEDGDAYVLNLRLAFATEADVDVRQLGDQLVVQVANQRSNVILPNFLNYYHMTNAALEEGWLRVRFTPDGEASSN | failed
ANTSGKDGTTVVIGESKSDHVIHLYEDPRCPGCAAMEQSIGETVNKGMEDGDYKLSFTVGTFLDGNLGGEGSKNALSALGAALNVSPEAFVDYKTALYSTKYHPEESTDEFAKDDYLIKVADSVDALKGNKKFQDAVEKGTYDAWAMRMSKSFDKAEGVESTPTIKINDKVVETPSTPDAWQKALKDAGVTK | failed
MAIFMSYVLLGLSLAAPIGPVNAAQLDRGIKNGFFHAWLVGLGAITADVIYMLLVFFGLVHFLQLPFMQTFLWLFGFFVLVYTGIETISSVNHLKEATNMRTSETYRKSFIYGFLMSISNPLTILFWLGIFGSVLAKTASVYGPAQLVFYSSAILIGLLLWDVAMAGIASGARHMLTPARLKIVSILSGLTLIGFGVYFGLQACRVLFG | failed
MQNIRVVLARPNHPGNIGSAARAMKTMGLSRLYLVEPKVFPSEEANALASGAVDLLENATVVGSLREALSDVTVACALTSRRRELTTPLSTPRQTTPELIARARDGEQVALVFGNETFGLSIEEVEQCNRLVTIPGNPDYFSLNLAMAVQVMTYELFSHTGVDVEYLRAEGEAATQSEVDGMCGHLEQAMDEIGYFQRRNSERLMRRMRTMFHRAGMLREEIDILRGFYKQVQRTASGRSGDAD | failed
MGGIIIIDVHCHLDFKDFNRNREEVIERARSKLRAVIDSGVGLGGNRRALELASLNPGFICPTMGFHPVDASKARQDLIGEVVSQIESNIDLIVAVGETGMDFHHTRDEEGRRRQEETFRVFVELAAEHEMPLVVHARDAEERALETVLEYRVPEVIFHCYGGSIETARRILDEGYYISISTLVAFSEHHMELVRAIPLEGMLTETDSPYLSPFRGKRNEPAFVEEAVRAIARIKDMDLEDVDSITTANAERVFGL | failed
MRREALKNAVLKIMTEKMELKNVTHLEETMRLNQDLYIDSVMMLQLIVYIEMDVKLCVPEDEVDPKAFLTVGSLLDFMEELQPLQDVNVNN | failed
MLEACTKCGTCAEACTMYLGSGRKKIYSPVYRSDMLRKIYKKHFTLTGKLFGPLIGAKDPTEDDINALAESAYRCTVCRRCALACPFGLDNGLITRETRKIFADLGILEHHHHHH | failed
